# Assay results published in US20210261685A1 (Alector, published 2021).
# Where a chain is given by its changes, count along the chain named.
# T1: cyno MerTK extracellular domain (ECD), recombinant (cynomolgus monkey, UniProt Q12866 21-505 (human entry))
# T1 construct: also called cynomolgus MerTK; not shown: polyHis tag or TEVS/Thrombin/murine IgG2a Fc tag
# T1 chain: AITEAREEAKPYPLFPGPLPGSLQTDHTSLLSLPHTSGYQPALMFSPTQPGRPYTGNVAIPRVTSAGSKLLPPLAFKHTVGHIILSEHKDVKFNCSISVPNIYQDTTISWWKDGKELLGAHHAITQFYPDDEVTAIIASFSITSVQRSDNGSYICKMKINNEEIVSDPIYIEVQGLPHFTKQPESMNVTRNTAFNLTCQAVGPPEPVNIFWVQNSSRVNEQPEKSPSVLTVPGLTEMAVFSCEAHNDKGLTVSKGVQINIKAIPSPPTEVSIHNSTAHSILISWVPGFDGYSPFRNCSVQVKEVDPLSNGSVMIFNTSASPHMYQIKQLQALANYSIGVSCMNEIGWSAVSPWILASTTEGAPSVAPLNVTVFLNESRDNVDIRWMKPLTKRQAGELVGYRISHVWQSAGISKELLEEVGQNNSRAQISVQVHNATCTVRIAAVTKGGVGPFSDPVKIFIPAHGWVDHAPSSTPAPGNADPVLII
# T2: murine MerTK extracellular domain (ECD), recombinant (mouse, UniProt Q60805 19-497)
# T2 construct: also called moMerTK; mouse MerTK; not shown: polyHis tag or TEVS/Thrombin/murine IgG2a Fc tag
# T2 sequence: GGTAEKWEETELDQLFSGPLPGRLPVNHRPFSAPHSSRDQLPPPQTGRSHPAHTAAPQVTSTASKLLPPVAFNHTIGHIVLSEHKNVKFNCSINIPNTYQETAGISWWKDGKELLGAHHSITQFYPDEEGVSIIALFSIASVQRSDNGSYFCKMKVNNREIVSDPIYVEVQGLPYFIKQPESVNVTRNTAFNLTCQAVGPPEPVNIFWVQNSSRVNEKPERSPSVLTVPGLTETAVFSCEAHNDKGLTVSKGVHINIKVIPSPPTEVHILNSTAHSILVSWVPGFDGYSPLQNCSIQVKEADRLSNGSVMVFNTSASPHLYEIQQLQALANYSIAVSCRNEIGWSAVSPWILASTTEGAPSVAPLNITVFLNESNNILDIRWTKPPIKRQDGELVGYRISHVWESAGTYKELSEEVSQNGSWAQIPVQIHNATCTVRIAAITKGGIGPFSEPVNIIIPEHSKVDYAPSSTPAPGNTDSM
# T3: human MerTK extracellular domain (ECD), recombinant (human, UniProt Q12866 21-505)
# T3 construct: also called huMerTK; not shown: polyHis tag or TEVS/Thrombin/murine IgG2a Fc tag
# T3 sequence: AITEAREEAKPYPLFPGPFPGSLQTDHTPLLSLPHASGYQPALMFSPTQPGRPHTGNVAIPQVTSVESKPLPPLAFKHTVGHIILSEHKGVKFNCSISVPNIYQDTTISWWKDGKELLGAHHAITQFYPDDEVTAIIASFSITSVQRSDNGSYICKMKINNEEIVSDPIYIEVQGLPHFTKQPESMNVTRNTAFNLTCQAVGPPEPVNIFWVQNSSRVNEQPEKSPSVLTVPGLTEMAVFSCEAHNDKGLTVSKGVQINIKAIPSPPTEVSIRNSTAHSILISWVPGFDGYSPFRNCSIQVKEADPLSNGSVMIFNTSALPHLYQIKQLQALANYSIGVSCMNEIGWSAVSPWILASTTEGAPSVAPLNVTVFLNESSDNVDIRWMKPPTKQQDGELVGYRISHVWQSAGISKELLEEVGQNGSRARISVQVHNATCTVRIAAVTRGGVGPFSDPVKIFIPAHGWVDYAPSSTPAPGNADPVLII
# B1: MTK-15.6 (antibody, human IgG1, V domains shown)
# VH: QVQLVQSGSELKKPGASVKVSCKASGYTFTNYGVHWVRQAPGQGLEWMGWINTYTGEPYYAQGFTGRFVFSLDTSVSTAYLQISSLKAEDTAVYYCARGNRYAYMDYWGQGTLVTVSS
# VL: EIVLTQSPATLSLSPGERATLSCRASSSVGYMHWYQQKPGQAPRPLIYATSNLASGIPARFSGSGSGTSYTLTISSLEPEDFAVYYCQQWSSNPRTFGGGTKVEIK
# B2: MTK-15.7 (antibody, human IgG1, V domains shown)
# VH: B1 VH with Y59T, A97V
# VL: B1 VL with S28G, G30S
# B3: MTK-15.11 (antibody, human IgG1, V domains shown)
# VH: B1 VH with T30A, T55E, Y59T, M105Q
# VL: B1 VL with G30S
# B4: MTK-15.1 (antibody, human IgG1, V domains shown)
# VH: B1 VH with Y59T, M105Q
# VL: B1 VL with G30S
# B5: MTK-15.5 (antibody, human IgG1, V domains shown)
# VH: B1 VH with Y59T, A97T, N100T
# VL: B1 VL
# B6: MTK-15.9 (antibody, human IgG1, V domains shown)
# VH: B1 VH with Y59T, N100Y
# VL: B1 VL with V29T, G30S
# B7: MTK-15.12 (antibody, human IgG1, V domains shown)
# VH: B1 VH with T30A, T55Q, Y59T, N100V
# VL: B1 VL with L77P
# B8: MTK-15.3 (antibody, human IgG1, V domains shown)
# VH: B1 VH with Y59T
# VL: B1 VL with S28H, G30S
# B9: MTK-15.13 (antibody, human IgG1, V domains shown)
# VH: B1 VH with Y59T, M105E
# VL: B1 VL with G30Q
# B10: MTK-15.2 (antibody, human IgG1, V domains shown)
# VH: B1 VH with I51G, Y59T
# VL: B1 VL with G30S
# B11: MTK-15.10 (antibody, human IgG1, V domains shown)
# VH: B1 VH with T30A, T55Q, Y59T, A97T, N100A
# VL: B1 VL
# B12: MTK-15.8 (antibody, human IgG1, V domains shown)
# VH: B1 VH with Y59T, N100V
# VL: B1 VL with L77P
# B13: MTK-16.1 (antibody, V domains shown)
# VH: QVQLVQSGSELKKPGASVKVSCKASGYTFTNHGMNWVRQAPGQGLEWMGWINTYTGEPTYAQGFTGRFVFSLDTSVSTAYLQISSLKAEDTAVYYCARKGVTAARYFDYWGQGTLVTVSS
# VL: DIQMTQSPSSLSASVGDRVTITCKASQNVRTAVAWYQQKPGKAPKRLIYLASNRHTGVPSRFSGSGSGTEFTLTISNLQPEDFATYYCLQHWNYPLTFGGGTKVEIK
# B14: MTK-16.2 (antibody, V domains shown)
# VH: B13 VH with Q62D, G63D, T65K
# VL: B13 VL with K24R, V104L
# B15: MTK-29.8 (antibody, human IgG1, V domains shown)
# VH: QVQLVQSGSELKKPGASVKVSCKASGYIFTTYGLSWVRQAPGQGLEWMGWINTYSGVPTYTDDFKGRFVFSLDTNVSTAYLQISSLKAEDTAVYYCARYTNYGVFDYWGQGTLVTVSS
# VL: DIQLTQSPSFLSASVGDRVTITCRASSSVGYMHWYQQKPGKAPKLLIYATSNLAQGVPSRFSGSGSGTEFTLTISSLQPEDFATYYCQQWGSLPFTFGQGTKLEIK
# B16: MTK-29.7 (antibody, human IgG1, V domains shown)
# VH: B15 VH with G26S, I28T, L34M, T59S, G66A, N75S
# VL: B15 VL
# B17: MTK-29.14 (antibody, human IgG1, V domains shown)
# VH: B15 VH with G26S, I28T, L34M, T59S, G66A, N75S
# VL: B15 VL with S75F
# B18: MTK-29.13 (antibody, human IgG1, V domains shown)
# VH: B15 VH with G26S, I28T, L34M, Y54A, N75S
# VL: B15 VL with K38E
# B19: MTK-29.12 (antibody, human IgG1, V domains shown)
# VH: B15 VH with G26S, I28T, L34M, Y54M, N75S
# VL: B15 VL with S9G
# B20: MTK-29.9 (antibody, human IgG1, V domains shown)
# VH: B15 VH with T31S, N75S
# VL: B15 VL with E69G
# B21: MTK-29.5 (antibody, human IgG1, V domains shown)
# VH: B15 VH with T31S, N75S, S85P
# VL: B15 VL
# B22: MTK-15.4 (antibody, human IgG1, V domains shown)
# VH: B1 VH with Y59T
# VL: B1 VL
# Target: T1, cyno MerTK extracellular domain (ECD), …
# Experiment: SPR, Carterra LSA, antibody immobilised
# Procedure: (§1) Binding kinetics of humanized and affinity-matured anti-MerTK antibodies of the present disclosure to human, murine, and cynomolgus MerTK proteins were evaluated as follows. Briefly, anti-MerTK antibodies were prepared by diluting to 10 μg/ml in 10 mM Acetate, pH 4.25 (Carterra, Salt Lake City, Utah), at 300 μl/well. A HC200M sensor chip (Carterra) was activated using the single channel flow cell with a 7-minute injection of a 1:1:1 mixture of 100 mM MES pH 5.5, 100 mM sulfo-NHS, 400 mM EDC (all reconstituted in MES pH 5.5; 100 μl of each mixed in vial immediately before running assay). After switching to the multi-channel array flow cell, the antibodies were injected over the activated chip in a 96-spot array for 15 minutes. The remaining unconjugated active groups on the chip were then blocked by injecting 1M Ethanolamine pH 8.5 (Carterra) for 7 minutes using the single channel flow cell.
# (§2) Estimates of affinity were generated by injecting each analyte over the entire antibody array using the single channel flow cell. MerTK analytes were diluted to 33.3, 100, and 300 nM in running buffer, and injected in serial from lowest to highest concentration without regeneration. Two buffer blanks were run between each series (one species per series). Data were processed and analyzed using NextGenKIT high-throughput kinetics analysis software (Carterra). In these experiments, the anti-MerTK antibodies were human IgG1 isotype containing the Fc variant LALAPS.
# (§3) The equilibrium dissociation constants (KD) were then calculated from the fitted association and dissociation rate constants (k-on and k-off) for anti-MerTK antibodies of the present disclosure.
row,Kd [µM],Binder
1,0.0015,B1
2,0.0003,B2
3,0.0125,B3
4,0.008,B4
5,0.0008,B5
6,0.0115,B6
7,0.018,B7
8,0.023,B8
9,0.0028,B9
10,0.0215,B10
11,0.0033,B11
12,0.005,B12
13,0.17,B13
14,0.16,B14
15,0.0225,B15
16,0.0032,B16
17,0.0073,B17
18,0.011,B18
19,0.021,B19
20,0.0058,B20
21,0.0044,B21

# Target: T2, murine MerTK extracellular domain …
# Experiment: SPR, Carterra LSA, antibody immobilised
# Procedure: as §1, §2, §3
binding result,Kd [µM],Binder
no binding (tested: 300 nM),–,B22
–,0.705,B2
–,0.14,B3
–,0.69,B5
–,0.85,B6
–,0.114,B7
no binding (tested: 300 nM),–,B8
–,0.13,B9
no binding (tested: 300 nM),–,B10
–,2.8,B11
no binding (tested: 300 nM),–,B12
no binding (tested: 300 nM),–,B13
no binding (tested: 300 nM),–,B14
–,0.31,B15
–,0.095,B16
–,0.1,B17
–,0.17,B18
–,0.25,B19
–,0.14,B20
–,0.135,B21

# Target: T3, human MerTK extracellular domain (ECD), …
# Experiment: SPR, Carterra LSA, antibody immobilised
# Procedure: as §1, §2, §3
row,Kd [µM],Binder
1,0.001,B1
2,0.0001,B2
3,0.0125,B3
4,0.0083,B4
5,0.0001,B5
6,0.01,B6
7,0.0175,B7
8,0.0215,B8
9,0.0023,B9
10,0.0215,B10
11,0.0033,B11
12,0.0049,B12
13,0.086,B13
14,0.08,B14
15,0.023,B15
16,0.0036,B16
17,0.0076,B17
18,0.013,B18
19,0.023,B19
20,0.0057,B20
21,0.0044,B21
